From patent US20120082661A1 (Biogen, published 2012)
Residue numbers refer to the chain shown, from its start.

T1: human BCMA (B cell maturation antigen) (human, UniProt Q02223 1-184)
T1 chain: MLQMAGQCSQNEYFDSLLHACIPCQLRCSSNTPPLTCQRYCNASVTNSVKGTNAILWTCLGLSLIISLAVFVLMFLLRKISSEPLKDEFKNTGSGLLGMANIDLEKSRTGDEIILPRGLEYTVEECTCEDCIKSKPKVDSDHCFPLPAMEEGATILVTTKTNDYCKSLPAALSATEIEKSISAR

B1: chC12A3.2 (antibody, human IgG1, kappa, V domains shown)
VH: QIQLVQSGPELKKPGETVKISCKASGYTFRHYSMNWVKQAPGKGLKWMGRINTESGVPIYADDFKGRFAFSVETSASTAYLVINNLKDEDTASYFCSNDYLYSLDFWGQGTTLTVSS
VL: DIVLTQSPPSLAMSLGKRATISCRASESVTILGSHLIYWYQQKPGQPPTLLIQLASNVQTGVPARFSGSGSRTDFTLTIDPVEEDDVAVYYCLQSRTIPRTFGGGTKLEIKR
B2: chC13F12.1 (antibody, human IgG1, kappa, V domains shown)
VH: B1 VH with R30T, S55T, V57E, I59L, V72L, D88N, S93T, Y94F, L104C, F106Y
VL: B1 VL
B3: chC11D5.3 (antibody, human IgG1, kappa, V domains shown)
VH: QIQLVQSGPELKKPGETVKISCKASGYTFTDYSINWVKRAPGKGLKWMGWINTETREPAYAYDFRGRFAFSLETSASTAYLQINNLKYEDTATYFCALDYSYAMDYWGQGTTLTVSS
VL: B1 VL with Y38H
B4: chA7D12.2 (antibody, human IgG1, kappa, V domains shown)
VH: QIQLVQSGPDLKKPGETVKLSCKASGYTFTNFGMNWVKQAPGKGFKWMAWINTYTGESYFADDFKGRFAFSVETSATTAYLQINNLKTEDTATYFCARGEIYYGYDGGFAYWGQGTLVTVSA
VL: DVVMTQSHRFMSTSVGDRVSITCRASQDVNTAVSWYQQKPGQSPKLLIFSASYRYTGVPDRFTGSGSGADFTLTISSVQAEDLAVYYCQQHYSTPWTFGGGTKLDIKR

Key:
[1] = biological target: T1, human BCMA (B cell maturation antigen); experiment: cell-based or functional assay
[2] = biological target: T1, human BCMA (B cell maturation antigen); experiment: cell-based or functional assay

Row | Binder | % Killing at 1 nM (ADCC of U266 cells, PBMC effectors, LDH release) [1] | % Killing at 1 nM (ADCC of JJN-3 cells, PBMC effectors, LDH release) [2]
1 | B1 | 32% | 5%
2 | B2 | 20% | 3%
3 | B3 | 18% | 
4 | B4 | 10% | 20%
